What was measured:
[1] = test system: MalE-EspB fusion protein; assay: EspB autophosphorylation gel electrophoresis assay; type: biochemical, Staphylococcus aureus; details: purified protein pretreated with 2 M or 0.5 M guanidine-HCl, then dialyzed; [γ-32P]ATP 30 minutes; vs protein not pretreated
Description: Enzyme autophosphorylation activity was assayed as described in Example 4 below. Samples containing equal amounts of purified MalE-EspB fusion that had either been treated or not with guanidine-HCl were incubated with [γ-^32P]ATP for 30 minutes, analyzed by polyacrylamide gel electrophoresis, and exposed to X-ray film. In FIG. 3 the bands show the autophosphorylated protein, and can be quantitated. Lanes 1 and 2 show the activity of purified protein samples that had not been pretreated with guanidine-HCl, whereas the protein samples inlanes 3 and 4 had been pretreated with 2 M and 0.5 M guanidine-HCl, respectively, and dialyzed afterwards against enzyme storage buffer. When the X-ray picture is greatly overexposed, the protein bands become also apparent on lanes 1 and 2. The experiment showes that pretreatment with guanidine-HCl activates MalE-EspB by approximately 40 to 100-fold, a likely consequence of denaturing and then refolding the purified MalE-EspB protein.
Volumes of 18.5 μl of compounds diluted in 6% DMSO or controls of 6% DMSO alone were mixed in a microcentrifuge tube with an equal volume of EspB reaction mixture (containing EspB at 0.58 mg/ml in a salt buffer of 328 mM Tris-HCl [pH 8.0], 225 mM KCl, 0.4 mM PMSF {phenylmethylsulfonyl fluoride}, 1.2 mM DTT, 0.2 mM EDTA, 9.3 mM MnCl2, and 10% glycerol). […]

[2] = target: T1, EspA cognate response regulator (UniProt Q5HJX7)
T1 sequence: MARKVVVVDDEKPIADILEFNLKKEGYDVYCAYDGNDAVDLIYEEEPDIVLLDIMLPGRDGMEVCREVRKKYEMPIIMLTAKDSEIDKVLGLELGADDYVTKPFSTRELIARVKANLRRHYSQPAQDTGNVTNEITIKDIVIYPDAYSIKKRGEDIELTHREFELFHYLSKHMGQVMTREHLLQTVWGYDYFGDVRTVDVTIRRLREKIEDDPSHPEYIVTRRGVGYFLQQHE

| Compound | activation of MalE-EspB autophosphorylation activity by pretreatment [1] [fold] | transphosphorylation of EspA by EspB without Ca++, [gamma-32P]ATP, SDS-PAGE and X-ray film [2] | transphosphorylation of EspA by EspB, [gamma-32P]ATP, SDS-PAGE and X-ray film [2] |
| --- | --- | --- | --- |
| Cl.N=C(N)N [guanidine-HCl, Guanidine-HCl] | 40 to 100 |  |  |
| MalE-EspB fusion protein |  | this transphosphorylation requires the presence of Ca^++ whereas autophosphorylation of EspB does not (absence of the EspA band in lane 5) | EspA is unable to autophosphorylate (lane 3), but that it can be transphosphorylated by its cognate HPK EspB (lane 2) |

— patent publication US20020004214A1, “Method to detect modulators of histidine kinases” (priority 1999, published 2002)
